Usually IC50 stands for the concentration that inhibits the measured activity by half. By Kd is commonly meant the equilibrium constant for the complex coming apart. Low readings indicate a tighter complex, high ones a looser complex.

Non-standard residues stand in square brackets, D forms with d. No end group written: not given here.

B6: fibrinogen (ligand)
chain 1: ADSGEGDFLAEGGGVRGPRVVERHQSACKDSDWPFCSDEDWNYKCPSGCRMKGLIDEVNQDFTNRINKLKNSLFEYQKNNKDSHSLTTNIMEILRGDFSSANNRDNTYNRVSEDLRSRIEVLKRKVIEKVQHIQLLQKNVRAQLVDMKRLEVDIDIKIRSCRGSCSRALAREVDLKDYEDQQKQLEQVIAKDLLPSRDRQHLPLIKMKPVPDLVPGNFKSQLQKVPPEWKALTDMPQMRMELERPGGNEITRGGSTSYGTGSETESPRNPSSAGSWNSGSSGPGSTGNRNPGSSGTGGTATWKPGSSGPGSTGSWNSGSSGTGSTGNQNPGSPRPGSTGTWNPGSSERGSAGHWTSESSVSGSTGQWHSESGSFRPDSPGSGNARPNNPDWGTFEEVSGNVSPGTRREYHTEKLVTSKGDKELRTGKEKVTSGSTTTTRRSCSKTVTKTVIGPDGHKEVTKEVVTSEDGSDCPEAMDLGTLSGIGTLDGFRHRHPDEAAFFDTASTGKTFPGFFSPMLGEFVSETESRGSESGIFTNTKESSSHHPGIAEFPSRGKSSSYSKQFTSSTSYNRGDSTFESKSYKMADEAGSEADHEGTHSTKRGHAKSRPV
chain 2: QGVNDNEEGFFSARGHRPLDKKREEAPSLRPAPPPISGGGYRARPAKAAATQKKVERKAPDAGGCLHADPDLGVLCPTGCQLQEALLQQERPIRNSVDELNNNVEAVSQTSSSSFQYMYLLKDLWQKRQKQVKDNENVVNEYSSELEKHQLYIDETVNSNIPTNLRVLRSILENLRSKIQKLESDVSAQMEYCRTPCTVSCNIPVVSGKECEEIIRKGGETSEMYLIQPDSSVKPYRVYCDMNTENGGWTVIQNRQDGSVDFGRKWDPYKQGFGNVATNTDGKNYCGLPGEYWLGNDKISQLTRMGPTELLIEMEDWKGDKVKAHYGGFTVQNEANKYQISVNKYRGTAGNALMDGASQLMGENRTMTIHNGMFFSTYDRDNDGWLTSDPRKQCSKEDGGGWWYNRCHAANPNGRYYWGGQYTWDMAKHGTDDGVVWMNWKGSWYSMRKMSMKIRPFFPQQ
chain 3: YVATRDNCCILDERFGSYCPTTCGIADFLSTYQTKVDKDLQSLEDILHQVENKTSEVKQLIKAIQLTYNPDESSKPNMIDAATLKSRKMLEEIMKYEASILTHDSSIRYLQEIYNSNNQKIVNLKEKVAQLEAQCQEPCKDTVQIHDITGKDCQDIANKGAKQSGLYFIKPLKANQQFLVYCEIDGSGNGWTVFQKRLDGSVDFKKNWIQYKEGFGHLSPTGTTEFWLGNEKIHLISTQSAIPYALRVELEDWNGRTSTADYAMFKVGPEADKYRLTYAYFAGGDAGDAFDGFDFGDDPSDKFFTSHNGMQFSTWDNDNDKFEGNCAEQDGSGWWMNKCHAGHLNGVYYQGGTYSKASTPNGYDNGIIWATWKTRWYSMKKTTMKIIPFNRLTIGEGQQHHLGGAKQAGDV
notes: Soluble plasma fibrinogen flowed over the Biacore chip; also called free fibrinogen

The target in experiment [1] is T1, GPIb on human platelets (human, UniProt P07359 17-652; P13224 26-206). Nature of the experiment: cell-based or functional assay.
Experiment [2] has as its target T1, GPIb on human platelets. In words: conclusion from inhibition of vWf binding to platelets, flow cytometry. In general terms: In flow cytometry, cells or beads pass a laser one at a time.
Experiment [3] concerns the target T1, GPIb on human platelets. In words: inhibition of vWf binding to platelets in PRP, flow cytometry (FITC anti-human vWf). How it is done:
In order to prepare human platelets for testing, as approved by Canadian Blood Services' Ethics Board, samples of whole blood were drawn from healthy, consenting donors into 2.7-4.0 mL citrated tubes (BD, USA). Platelet rich plasma (PRP) was prepared from whole blood by centrifugation in a Beckman (CS-6R) bench-top centrifuge (r=203.57 mm, Beckman Coulter, USA) 164×g for 15 minutes. PRP from a number of unrelated donors were evaluated on an Adiva 120 Hematology Analyzer (Bayer, Canada) and standardized to a concentration of 300×10⁹ platelets/L in HEPES buffered saline (HBS, 10 mM HEPES, 150 mM NaCl, pH 7.4).
Thereafter the samples were diluted and fixed with 1.0 mL 0.2% formolsaline (0.2% formaldehyde, 150 mM NaCl, pH 7.20) before analysis on a FACS Canto flow cytometer (BD, USA).

The experiment “fibrinogen” has as its target B6. Nature of the experiment: SPR (Biacore), peptide-PEG-biotin on streptavidin chip, fibrinogen in flow, Langmuir analysis. The text has this: In this case, peptides known to interfere with fibrinogen-GPIIbIIIa interaction were synthesized, and coupled to the end of a long (3400 MW) PEG molecule whose other end was attached to biotin, as illustrated schematically in FIG. 7. As is known in the art, fibrinogen is a soluble protein in the blood plasma essential for clotting of blood which the enzyme thrombin converts into the insoluble protein fibrin. As shown schematically in FIG. 7, the biotin molecule was used to tether down the peptide-PEG onto a streptavidin-modified Biacore chip. This allowed the GPIIbIIIa mimicking peptide to be hanging off the free end of the PEG.
By allowing free fibrinogen to flow past the peptide, the binding kinetics (i.e., the “on/off rate”) between fibrinogen and the peptides were measured. Then, the fibrinogen was released from the peptide. Using several fibrinogen concentrations, it was possible to measure the KD of the binding interaction between the peptide and the fibrinogen.
For orientation: In SPR one partner is held on a chip, and binding of the other changes the refractive index at the surface.

Experiment [4] addresses von Willebrand factor (vWf) (human) (UniProt P04275). Nature of the experiment: cell-based or functional assay.
The target of the next experiment is T2, wild-type GPIIbIIIa (UniProt P08514 32-1039; P05106 27-788, limits assumed).
T2 construct: also called wild-type GPIIaIIIb (so in the source); integrin alphaIIbbeta3
Nature of the experiment: not stated (comparison value given with the SPR results).

In the experiment with GPIb on human platelets [1], [dC]GGGGGG[dR][dD][dK][dL]G[dI][dY][dA][dH][dS] (not fully specified) [D-… (D-retro peptide; SEQ ID NO:12)] showed an Aggregometry % Aggregation on Activation of 78%.

B1: L100 (HPG conjugate with 100 L-peptides per HPG) (other)
peptide: CGGGGGGSHAYIGLKDR
modifications: also: coupled via vinyl sulfone to 500 kDa hyperbranched polyglycerol (HPG), about 100 peptides per HPG
On to B1, for which the “Aggregometry % Aggregation on Activation” value with GPIb on human platelets [1] was 5%.

In the case of SHAYIGLKDR [SHAYIGLKDR (SEQ ID NO:8)], the binding result with GPIb on human platelets [2] was “binds”. CGGGGGGSHAYIGLKDR (L-amino acids; free peptide) [L-CGGGGGGSHAYIGLKDR (L-peptide)]: the “Aggregometry % Aggregation on Activation” value with GPIb on human platelets [1] was 5%. In the experiment with GPIb on human platelets [3], the IC50 was found to be 48 µM and the “Peptide Concentration at Ic50” value came out at 48 µM.

B2: L10 (HPG conjugate with 10 L-peptides per HPG) (other)
peptide: CGGGGGGSHAYIGLKDR
modifications: also: coupled through vinyl sulfone to 500 kDa hyperbranched polyglycerol, about 10 peptides per HPG
On to B2, for which, in the experiment with GPIb on human platelets [1], the “Aggregometry % Aggregation on Activation” value came to 5%.

B3: LR100 (HPG conjugate with 100 L-retro peptides per HPG) (other)
peptide: CGGGGGGRDKLGIYAHS
modifications: also: coupled via vinyl sulfone to 500 kDa hyperbranched polyglycerol (HPG), about 100 peptides per HPG
notes: Peptide-polymer conjugate
Consider B3, for which the “Aggregometry % Aggregation on Activation” value with GPIb on human platelets [1] amounted to 5%. Besides, the “Peptide Concentration at Ic50” value with GPIb on human platelets [3] came out at 22 µM.

B4: LR10 (HPG conjugate with 10 L-retro peptides per HPG) (other)
peptide: CGGGGGGRDKLGIYAHS
modifications: also: coupled through vinyl sulfone to 500 kDa hyperbranched polyglycerol, about 10 peptides per HPG
notes: Peptide-polymer conjugate
For B4, in the experiment with GPIb on human platelets [1], the “Aggregometry % Aggregation on Activation” value came out at 5%. Also, the “Peptide Concentration at Ic50” value in the experiment with GPIb on human platelets [3] was determined as 41 µM.

B5: L-CGGGGGGRDKLGIYAHS (L-retro peptide) (peptide)
peptide: CGGGGGGRDKLGIYAHS
notes: Linker CGGGGGG followed by the reversed mimotope; L-amino acids; free peptide; also called LR-pep; LR-peptide
With B5, the “Aggregometry % Aggregation on Activation” value with GPIb on human platelets [1] was found to be 5%. In the experiment with GPIb on human platelets [3], the IC50 was found to be 34 µM and the “Peptide Concentration at Ic50” value stood at 34 µM. In the experiment with fibrinogen, APLHK (also: coupled to PEG 3400 carrying biotin, coupled end not given here, also called A-peptide 1) [GPIIbIIIa mimotope peptide 1 (APLHK)] gave a Kd of 12.5 µM. Still for that read-out and setting: under EHIPA (also: coupled to PEG 3400 carrying biotin, coupled end not given here, also called B-peptide 2) [GPIIbIIIa mimotope peptide 2 (EHIPA)] stands 0.334 µM. As to [dR][dS][dA][dR][dM][dQ][dV][dC][dW][dN][dA][dF][dK][dN][dR] [D-pep3 (…)], in experiment [4], the % agglutination of washed platelets at 10 minutes, ristocetin, aggregometry, 0.1 mg/mL D-pep3 (buffer 66%, BSA 55%) is 69%; the % agglutination of washed platelets at 10 minutes, ristocetin, aggregometry, 0.25 mg/mL D-pep3 (buffer 66%, BSA 55%) stood at 28%; the % agglutination of washed platelets at 10 minutes, ristocetin, aggregometry, 0.5 mg/mL D-pep3 (buffer 66%, BSA 55%) worked out at 13%.

The molecule B6 yielded a Kd with wild-type GPIIbIIIa of 0.103 µM. That is a sub-micromolar value.

Source of the values: patent US20100075908A1 (published 2010).
